The data set concerns the target Ec Hfq WT (Escherichia coli, UniProt P0A6X3 1-102). Description: fluorescence polarization. For orientation: Polarisation of emitted light reports the rotation of a fluorescent probe.

Chain of Ec Hfq WT (P0A6X3 whole entry): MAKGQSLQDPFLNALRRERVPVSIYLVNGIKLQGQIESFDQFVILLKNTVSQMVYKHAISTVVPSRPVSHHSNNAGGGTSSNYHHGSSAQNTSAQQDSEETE

B1: U6 (5'-fluorescein) (ssRNA)
RNA: UUUUUU
As to B1, binding was characterised by a dissociation constant (Kd) of 3.3 nM.
